Here are results for five substances from article PMC7299281.

The target of the experiment is stabilized prefusion SARS-CoV-2 S ectodomain (SARS-CoV-2) (UniProt P0DTC2). Put plainly: negative-stain electron microscopy.

For the substance COVA1-12 Fab, the stoichiometry N (Fab per trimer) turned out to be 1. On to COVA2-04 Fab, for which the stoichiometry N (Fab per trimer) turned out to be 1. COVA2-07 Fab yielded a stoichiometry N (Fab per trimer) of 1.

Regarding COVA2-15 Fab, the stoichiometry N stood at 3 per trimer. COVA2-39 Fab displayed a stoichiometry N (Fab per trimer) of 1.

Usually stoichiometry N stands for the number of molecules, sites or subunits per partner or assembly.
